# Source: patent US20140193378A1 (UNIVERSITY OF MIAMI, published 2014)
# Assays:
# [1] = target: T1, human GHRH receptor (human pituitary membrane homogenates) (human) (UniProt Q02643); test: radioligand competition vs 125I-JV-1-42 (0.2 nM), human pituitary membranes
# T1 sequence (looked up): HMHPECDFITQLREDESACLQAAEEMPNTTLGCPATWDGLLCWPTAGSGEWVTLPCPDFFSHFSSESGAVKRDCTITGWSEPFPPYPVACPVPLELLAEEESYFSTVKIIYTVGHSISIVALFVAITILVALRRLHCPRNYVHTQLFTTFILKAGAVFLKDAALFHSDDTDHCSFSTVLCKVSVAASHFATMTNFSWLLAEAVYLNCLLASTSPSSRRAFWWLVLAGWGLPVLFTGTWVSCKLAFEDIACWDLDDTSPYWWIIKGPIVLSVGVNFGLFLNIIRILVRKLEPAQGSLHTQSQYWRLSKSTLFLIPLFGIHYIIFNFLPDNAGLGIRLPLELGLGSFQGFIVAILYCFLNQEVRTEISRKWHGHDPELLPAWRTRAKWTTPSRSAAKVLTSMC
# [2] = target: T1, human GHRH receptor (human pituitary membrane homogenates) (human); test: radioligand competition vs [His1,125I-Tyr10,Nle27]hGHRH(1-32)NH2 (0.2 nM), human pituitary membranes
# [3] = target: T1, human GHRH receptor (human pituitary membrane homogenates) (human); test: radioligand competition vs 125I-JV-1-42 (0.2 nM), human pituitary membranes; remark: listed apart in the source
Substance,Relative affinity (Binding potency) vs JI-38 [1] [fold],Relative affinity (Binding potency) vs GHRH [2] [fold],Relative affinity (Binding potency) vs JI-38 [2] [fold],Relative affinity (Binding potency) vs GHRH [3] [fold],Relative affinity (Binding potency) vs JI-38 [3] [fold]
"P-27406 [N-Me-Tyr^1, Gln^8, Orn^12, Abu^15, Orn^21, Nle^27, Asp^28]hGHRH(1-29)NH-CH3 (peptide)",14.5,–,–,–,–
JI-36 (peptide),–,3.25,–,–,–
"P-27407 [Dat^1, Gln^8, Orn^12, Abu^15, Orn^21, Nle^27, Asp^28]hGHRH(1-29)NH-CH3 (peptide)",1.45,–,–,–,–

# Second part, the substance after the results:
Relative affinity (Binding potency) vs JI-38 [1] [fold],Relative affinity (Binding potency) vs GHRH [2] [fold],Relative affinity (Binding potency) vs JI-38 [2] [fold],Relative affinity (Binding potency) vs GHRH [3] [fold],Relative affinity (Binding potency) vs JI-38 [3] [fold],Substance
–,3.03,1,2.4,1,JI-38 (peptide)
–,4.32,–,–,–,JI-34 (peptide)
16.1,–,–,406,171,"P-20356 [N-Me-Tyr^1, Gln^8, Orn^12, Abu^15, Orn^21, Nle^27, Asp^28, Agm^29]hGHRH(1-29)NH2 (peptide)"
